{"source": "patent US20110076268A1", "about": "(CRUCELL HOLLAND B V, published 2011)", "molecules": {"B1": {"name": "Motavizumab (antibody, V domains shown)", "VH": "QVTLRESGPALVKPTQTLTLTCTFSGFSLSTAGMSVGWIRQPPGKALEWLADIWWDDKKHYNPSLKDRLTISKDTSKNQVVLKVTNMDPADTATYYCARDMIFNFYFDVWGQGTTVTVSS", "VL": "DIQMTQSPSTLSASVGDRVTITCSASSRVGYMHWYQQKPGKAPKLLIYDTSKLASGVPSRFSGSGSGTEFTLTISSLQPDDFATYYCFQGSGYPFTFGGGTKVEIK"}}, "key": {"[1]": {"target": "F protein of MARM 19 (RSV A2 escape mutant generated against human Fab 19) (Respiratory Syncytial Virus strain A2) (UniProt P03420)", "experiment": "cell-based or functional assay"}, "[2]": {"target": "F protein of MARM 1129 (RSV A2 escape mutant generated against murine mAb 1129) (Respiratory Syncytial Virus strain A2) (UniProt P03420)", "experiment": "cell-based or functional assay"}, "[3]": {"target": "F protein of RSV B-1 (ATCC Cat. No. 1400) (Respiratory Syncytial Virus B, strain B-1) (UniProt O36634)", "experiment": "cell-based or functional assay"}, "[4]": {"target": "F protein of RSV B-wash (ATCC Cat. No. VR-1580, strain 18537) (Respiratory Syncytial Virus B, strain 18537) (UniProt P13843)", "experiment": "cell-based or functional assay"}, "[5]": {"target": "F protein of MARM 151 (RSV A2 escape mutant generated against murine mAb 151) (Respiratory Syncytial Virus strain A2) (UniProt P03420)", "experiment": "cell-based or functional assay"}, "[6]": {"target": "F protein of the motavizumab MARM (K272E) (Respiratory Syncytial Virus strain A2) (UniProt P03420)", "experiment": "cell-based or functional assay"}, "[7]": {"target": "F protein of the IgG form of 58C5 MARM (N63K, M115K and E295G) (Respiratory Syncytial Virus strain A2) (UniProt P03420)", "experiment": "cell-based or functional assay"}, "[8]": {"target": "T1, RSV strain A2 F protein (recombinant or native, not specified for Table 19) (Respiratory Syncytial Virus strain A2, UniProt P03420 26-524)", "T1 construct": "also called RSV F Protein", "experiment": "ELISA, IgG titrated on captured RSV F protein; EC50 estimated"}}, "data": [{"molecule": "IgG form of 58c5 (antibody)", "values": [{"measurement": "Average Plaque Count, 0.003 ug/ml", "setting": "[1]", "result": 143, "unit": "plaques"}, {"measurement": "Average Plaque Count, 0.016 ug/ml", "setting": "[1]", "result": 135, "unit": "plaques"}, {"measurement": "Average Plaque Count, 0.08 ug/ml", "setting": "[1]", "result": 89.3, "unit": "plaques"}, {"measurement": "Average Plaque Count, 0.4 ug/ml", "setting": "[1]", "result": 72, "unit": "plaques"}, {"measurement": "Average Plaque Count, 2 ug/ml", "setting": "[1]", "result": 16.7, "unit": "plaques"}, {"measurement": "Average Plaque Count, 10 ug/ml", "setting": "[1]", "result": 0.7, "unit": "plaques"}, {"measurement": "Plaque reduction rate, 0.003 ug/ml", "setting": "[1]", "result": 8, "unit": "%"}, {"measurement": "Plaque reduction rate, 0.016 ug/ml", "setting": "[1]", "result": 14, "unit": "%"}, {"measurement": "Plaque reduction rate, 0.08 ug/ml", "setting": "[1]", "result": 42.7, "unit": "%"}, {"measurement": "Plaque reduction rate, 0.4 ug/ml", "setting": "[1]", "result": 53.8, "unit": "%"}, {"measurement": "Plaque reduction rate, 2 ug/ml", "setting": "[1]", "result": 89, "unit": "%"}, {"measurement": "Plaque reduction rate, 10 ug/ml", "setting": "[1]", "result": 100, "unit": "%"}, {"measurement": "Average Plaque Count, 0.003 ug/ml", "setting": "[2]", "result": 17.7, "unit": "plaques"}, {"measurement": "Average Plaque Count, 0.016 ug/ml", "setting": "[2]", "result": 11.7, "unit": "plaques"}, {"measurement": "Average Plaque Count, 0.08 ug/ml", "setting": "[2]", "result": 5.7, "unit": "plaques"}, {"measurement": "Average Plaque Count, 0.4 ug/ml", "setting": "[2]", "result": 2.3, "unit": "plaques"}, {"measurement": "Average Plaque Count, 2 ug/ml", "setting": "[2]", "result": 0, "unit": "plaques"}, {"measurement": "Average Plaque Count, 10 ug/ml", "setting": "[2]", "result": 0, "unit": "plaques"}, {"measurement": "Plaque reduction rate, 0.003 ug/ml", "setting": "[2]", "result": 21, "unit": "%"}, {"measurement": "Plaque reduction rate, 0.016 ug/ml", "setting": "[2]", "result": 47, "unit": "%"}, {"measurement": "Plaque reduction rate, 0.08 ug/ml", "setting": "[2]", "result": 74, "unit": "%"}, {"measurement": "Plaque reduction rate, 0.4 ug/ml", "setting": "[2]", "result": 90, "unit": "%"}, {"measurement": "Plaque reduction rate, 2 ug/ml", "setting": "[2]", "result": 100, "unit": "%"}, {"measurement": "Plaque reduction rate, 10 ug/ml", "setting": "[2]", "result": 100, "unit": "%"}, {"measurement": "Average Plaque Count, 0.003 ug/ml", "setting": "[3]", "result": 11.7, "unit": "plaques"}, {"measurement": "Average Plaque Count, 0.016 ug/ml", "setting": "[3]", "result": 9.3, "unit": "plaques"}, {"measurement": "Average Plaque Count, 0.08 ug/ml", "setting": "[3]", "result": 4, "unit": "plaques"}, {"measurement": "Average Plaque Count, 0.4 ug/ml", "setting": "[3]", "result": 0.3, "unit": "plaques"}, {"measurement": "Average Plaque Count, 2 ug/ml", "setting": "[3]", "result": 0, "unit": "plaques"}, {"measurement": "Average Plaque Count, 10 ug/ml", "setting": "[3]", "result": 0, "unit": "plaques"}, {"measurement": "Plaque reduction rate (%), 0.003 ug/ml", "setting": "[3]", "result": 5, "unit": "%"}, {"measurement": "Plaque reduction rate (%), 0.016 ug/ml", "setting": "[3]", "result": 24, "unit": "%"}, {"measurement": "Plaque reduction rate (%), 0.08 ug/ml", "setting": "[3]", "result": 67.5, "unit": "%"}, {"measurement": "Plaque reduction rate (%), 0.4 ug/ml", "setting": "[3]", "result": 97.6, "unit": "%"}, {"measurement": "Plaque reduction rate (%), 2 ug/ml", "setting": "[3]", "result": 100, "unit": "%"}, {"measurement": "Plaque reduction rate (%), 10 ug/ml", "setting": "[3]", "result": 100, "unit": "%"}, {"measurement": "Average Plaque Count, 0.003 ug/ml", "setting": "[4]", "result": 20.7, "unit": "plaques"}, {"measurement": "Average Plaque Count, 0.016 ug/ml", "setting": "[4]", "result": 16.3, "unit": "plaques"}, {"measurement": "Average Plaque Count, 0.08 ug/ml", "setting": "[4]", "result": 7.7, "unit": "plaques"}, {"measurement": "Average Plaque Count, 0.4 ug/ml", "setting": "[4]", "result": 1.3, "unit": "plaques"}, {"measurement": "Average Plaque Count, 2 ug/ml", "setting": "[4]", "result": 0, "unit": "plaques"}, {"measurement": "Average Plaque Count, 10 ug/ml", "setting": "[4]", "result": 0, "unit": "plaques"}, {"measurement": "Plaque reduction rate (%), 0.003 ug/ml", "setting": "[4]", "result": 21, "unit": "%"}, {"measurement": "Plaque reduction rate (%), 0.016 ug/ml", "setting": "[4]", "result": 38, "unit": "%"}, {"measurement": "Plaque reduction rate (%), 0.08 ug/ml", "setting": "[4]", "result": 71, "unit": "%"}, {"measurement": "Plaque reduction rate (%), 0.4 ug/ml", "setting": "[4]", "result": 95, "unit": "%"}, {"measurement": "Plaque reduction rate (%), 2 ug/ml", "setting": "[4]", "result": 100, "unit": "%"}, {"measurement": "Plaque reduction rate (%), 10 ug/ml", "setting": "[4]", "result": 100, "unit": "%"}, {"measurement": "Average Plaque Count, 0.003 ug/ml", "setting": "[5]", "result": 151, "unit": "plaques"}, {"measurement": "Average Plaque Count, 0.016 ug/ml", "setting": "[5]", "result": 128, "unit": "plaques"}, {"measurement": "Average Plaque Count, 0.08 ug/ml", "setting": "[5]", "result": 112, "unit": "plaques"}, {"measurement": "Average Plaque Count, 0.4 ug/ml", "setting": "[5]", "result": 64.7, "unit": "plaques"}, {"measurement": "Average Plaque Count, 2 ug/ml", "setting": "[5]", "result": 15.3, "unit": "plaques"}, {"measurement": "Average Plaque Count, 10 ug/ml", "setting": "[5]", "result": 0, "unit": "plaques"}, {"measurement": "Plaque reduction rate, 0.003 ug/ml", "setting": "[5]", "result": 0, "unit": "%"}, {"measurement": "Plaque reduction rate, 0.016 ug/ml", "setting": "[5]", "result": 15, "unit": "%"}, {"measurement": "Plaque reduction rate, 0.08 ug/ml", "setting": "[5]", "result": 26, "unit": "%"}, {"measurement": "Plaque reduction rate, 0.4 ug/ml", "setting": "[5]", "result": 57, "unit": "%"}, {"measurement": "Plaque reduction rate, 2 ug/ml", "setting": "[5]", "result": 90, "unit": "%"}, {"measurement": "Plaque reduction rate, 10 ug/ml", "setting": "[5]", "result": 100, "unit": "%"}, {"measurement": "ED50, neutralization of Motavizumab MARM", "setting": "[6]", "result": 0.173, "unit": "nM"}, {"measurement": "Plaque reduction rate, Motavizumab MARM, 3.2 ng/ml", "setting": "[6]", "result": 1.5, "unit": "%"}, {"measurement": "Plaque reduction rate, Motavizumab MARM, 16 ng/ml", "setting": "[6]", "result": 43, "unit": "%"}, {"measurement": "Plaque reduction rate, Motavizumab MARM, 80 ng/ml", "setting": "[6]", "result": 74.6, "unit": "%"}, {"measurement": "Plaque reduction rate, Motavizumab MARM, 400 ng/ml", "setting": "[6]", "result": 92, "unit": "%"}, {"measurement": "Plaque reduction rate, Motavizumab MARM, 2000 ng/ml", "setting": "[6]", "result": 95.8, "unit": "%"}, {"measurement": "Plaque reduction rate, Motavizumab MARM, 10000 ng/ml", "setting": "[6]", "result": 97.6, "unit": "%"}, {"measurement": "ED50, neutralization of IgG 58C5 MARM", "setting": "[7]", "result": "> 66.7", "unit": "nM"}, {"measurement": "Plaque reduction rate, IgG 58C5 MARM, 3.2 ng/ml", "setting": "[7]", "result": 0, "unit": "%"}, {"measurement": "Plaque reduction rate, IgG 58C5 MARM, 16 ng/ml", "setting": "[7]", "result": 0, "unit": "%"}, {"measurement": "Plaque reduction rate, IgG 58C5 MARM, 80 ng/ml", "setting": "[7]", "result": 0, "unit": "%"}, {"measurement": "Plaque reduction rate, IgG 58C5 MARM, 400 ng/ml", "setting": "[7]", "result": 0, "unit": "%"}, {"measurement": "Plaque reduction rate, IgG 58C5 MARM, 2000 ng/ml", "setting": "[7]", "result": 0, "unit": "%"}, {"measurement": "Plaque reduction rate, IgG 58C5 MARM, 10000 ng/ml", "setting": "[7]", "result": 3.3, "unit": "%"}]}, {"molecule": "B1", "values": [{"measurement": "EC50", "setting": "[8]", "result": "~0.027", "unit": "nM"}]}]}
